Assay results published in patent publication US10792311B2, “Stimulation of ovarian follicle development and oocyte maturation” (The Board of Trustees of the Leland Stanford Junior …, priority 2011, dated 2020).

Assays:
preantral follicles = test: Preantral follicle culture; assay type: cell-based, mice; conditions: preantral follicles of day 13 mice, four days
From the text: CNP treatment promoted the growth of preantral follicles and cultured ovarian explants: Preantral follicles (125-135 um in diameter) were isolated from ovaries of mice at day 13 of age and treated with different hormones for four days with daily monitoring of follicle diameters. […] In contrast, treatment with ANP was ineffective.
Dissection follicles of different sizes and culturing of preantral follicles: For RT-PCR analyses, early secondary follicles of 90-140 um in diameters were isolated from mice at day 13 of age whereas antral follicles (300-400 um in diameter) were isolated from prepubertal mice at day 23 of age. Preovulatory follicles (500-600 um in diameter) were isolated from prepubertal mice treated with eCG (5 IU). For follicle cultures, preantral follicles (125-145 um in diameter) were isolated from mice at day 13 of age and cultured individually in 96 well plates containing alpha-MEM (100 ul/well) with penicillin and streptomycin together with insulin, transferrin and selenium. […] The media were changed every two days and follicle growth was monitored daily by measuring follicle diameters.

ovaries from day 10 mice [1] = test: Ovarian explant cultures treated with CNP and/or FSH; assay type: cell-based
Procedure: Ovarian explant cultures: Ovaries from day 10 mice were placed on culture plate inserts (Millipore, Bedford, Mass.) and cultured in 400 μl of DMEM/F12 containing 0.1% BSA (Sigma), 0.1% Albumax II, insulin-transferrin-selenium, 0.05 mg/ml L-ascorbic acid and penicillin-streptomycin under the membrane insert to cover ovaries with a thin layer of medium. […] Some explants were also treated with a pan-specific protein kinase G inhibitor, Rp-8-Br-PET-cGMPS (BioLog, Bremen, Germany). At the end of culture, ovaries were fixed in Bouin's solution, paraffin embedded, and cut into continuous sections before staining with hematoxylin and eosin.

intestinal stem cell = conditions: 100 μg/adult mice; cited from earlier work
ovaries from day 10 mice [2] = test: Ovarian explant cultures treated with R-spondin2 and/or FSH; assay type: cell-based
Procedure: Ovarian explant cultures: Ovaries from day 10 mice were placed on culture plate insert (Millipore, Bedford, Mass.) and cultured in 400 μl of DMEM/F12 (Gibco) containing 0.1% BSA (Sigma), 0.1% Albumax II (Gibco), insulin-transferrin-selenium (Gibco), 0.05 mg/ml L-ascorbic acid (Sigma) and penicillin-streptomycin (Gibco) under the membrane insert to cover ovaries with a thin layer of medium. […] Explants treated with non-immune IgG or boiled (100 C, 15 min) R-spondin2 antibodies served as negative controls. At the end of culture, ovaries were fixed in Bouin's solution, paraffin embedded, and cut into continuous sections before staining with hematoxylin and eosin. Only follicles with clearly stained oocyte nucleus were counted to prevent recounting of the same follicle.

[3] = system: canonical Wnt signaling pathway; test: TCF-luciferase assay in cultured ovarian somatic cells; assay type: cell-based; conditions: somatic cells of day 10 mice; for TCF-luciferase activity: agent alone
Procedure: TCF-luciferase assay: Ovarian somatic cells from day 10 mice were cultured overnight at 37 C in McCoy's 5a medium containing 10% fetal bovine serum (FBS; Gibco) before evaluation of Wnt signaling based on the TCF-luciferase assay. Cells were transfected with 1 μg of pTOP FLASH or pFOP FLASH plasmid together with 0.1 μg of pRL-TK plasmid using lipofectamine 2000 (Invitrogen, Carlsbad, Calif.) for 6 h. […] Luciferase activity expressed as relative light unit was determined using a Dual Luciferase Reporter Assay Kit (Promega) with a luminometer (Bio-Rad).
Luciferase activity was measured as an index of Wnt signaling. […] To estimate the number of viable cells, cells were also cultured with increasing doses of R-spondin2 with or without Wnt3a before measurement of mitochondrial reductase (MTS) activity.

[4] = system: somatic cells obtained from day 10 ovaries; test: Cell proliferation (MTS) assay of ovarian somatic cells; assay type: cell-based, mice; conditions: for MTS activity (viable cell number): agent alone, 2 days
Procedure: Cell proliferation assay: Ovaries obtained from day 10 mice were digested with collagenase I, DNase, and trypsin. After centrifuging at 270×g for 10 min., cell pellet was washed and plated in a 96-well plate (BD Falcon, Franklin Lakes, N.J.) in McCoy's 5a medium (Gibco BRL, Grand Island, N.Y.) containing 4 mg/ml BSA (Sigma Aldrich Chemicals, St. Louis, Mo.), penicillin-streptomycin (Gibco) and sodium pyruvate (Gibco) for 3 h at 37 C. After washing twice with PBS to remove floating oocytes, cells were cultured in serum-free McCoy's 5a medium containing different factors for 48 h. MTS (3-(4,5-dimethylthiazol-2-yl)-5-(3-carboxymethoxyphenyl)-2-(4-sulfophenyl)-2H-tetrazolium) assay was performed using Cell Titer 96 Aqueous One Solution Cell Proliferation Assay (Promega, Madison, Wis.) by adding the substrate for 2 h before measuring absorbance at 490 nm.

[5] = treatment with R-spondin2 and/or FSH

Nc1nc2c(nc(Br)n2[C@@H]2O[C@@H]3COP(=O)(O)O[C@H]3[C@H]2O)c(=O)[nH]1 [8-bromo-cGMP, reference compound]
Follicle size (diameter) (preantral follicles): induced

CC[C@H](C)[C@@H]1NC(=O)[C@H](CCCNC(=N)N)NC(=O)[C@H](CC(=O)O)NC(=O)[C@H](CCSC)NC(=O)[C@H](CCCNC(=N)N)NC(=O)CNC(=O)CNC(=O)[C@H](Cc2ccccc2)NC(=O)[C@@H](NC(=O)[C@H](CO)NC(=O)[C@H](CO)NC(=O)[C@H](CCCNC(=N)N)NC(=O)[C@H](CCCNC(=N)N)NC(=O)[C@H](CC(C)C)NC(=O)[C@@H](N)CO)CSSC[C@@H](C(=O)N[C@@H](CC(N)=O)C(=O)N[C@@H](CO)C(=O)N[C@@H](Cc2ccccc2)C(=O)N[C@@H](CCCNC(=N)N)C(=O)N[C@@H](Cc2ccc(O)cc2)C(=O)O)NC(=O)CNC(=O)[C@H](CC(C)C)NC(=O)CNC(=O)[C@H](CO)NC(=O)[C@H](CCC(N)=O)NC(=O)[C@H](C)NC(=O)CNC1=O [ANP, reference compound]
Follicle size (diameter) (preantral follicles): ineffective | Ovarian weights of explants (ovaries from day 10 mice [1]; day 10 ovaries, 4 days culture): not

O=c1c2nc(Br)n([C@@H]3O[C@@H]4CO[P@@](O)(=S)O[C@H]4[C@H]3O)c2nc2[nH]c(-c3ccccc3)cn12 [Rp-8-Br-PET-cGMPs, Rp-8-Br-PET-cGMPS, reference compound]
Effect on stimulatory effects of CNP on ovarian weight (ovaries from day 10 mice [1]; explant culture): blocked the stimulatory effects of CNP | Effect on effects of a high dose of FSH on ovarian weight (ovaries from day 10 mice [1]; explant culture, FSH 100 ng/ml): partially suppressed the effects of a high dose of FSH

B1: R-spondin1: secreted glycoprotein of the R-spondin family that synergizes with Wnts to activate β-catenin-dependent signaling (protein, UniProt Q2MKA7 21-263, looked up)
R-spondin-1: SRGIKGKRQRRISAEGSQACAKGCELCSEVNGCLKCSPKLFILLERNDIRQVGVCLPSCPPGYFDARNPDMNKCIKCKIEHCEACFSHNFCTKCKEGLYLHKGRCYPACPEGSSAANGTMECSSPAQCEMSEWSPWGPCSKKQQLCGFRRGSEERTRRVLHAPVGDHAACSDTKETRRCTVRRVPCPEGQKRRKGGQGRRENANRNLARKESKEAGAGSRRRKGQQQQQQQGTVGPLTSAGPA
Intestinal stem cell proliferation and intestinal growth (intestinal stem cell): stimulate intestinal stem cell proliferation and intestinal growth

B2: R-spondin2: secreted protein that regulates beta-catenin; oocyte-derived paracrine factor; recombinant human R-spondin2 (protein, UniProt Q6UXX9 22-243, looked up)
R-spondin-2: QGNRWRRSKRASYVSNPICKGCLSCSKDNGCSRCQQKLFFFLRREGMRQYGECLHSCPSGYYGHRAPDMNRCARCRIENCDSCFSKDFCTKCKVGFYLHRGRCFDECPDGFAPLEETMECVEGCEVGHWSEWGTCSRNNRTCGFKWGLETRTRQIVKKPVKDTILCPTIAESRRCKMTMRHCPGGKRTPKAKEKRNKKKKRKLIERAQEQHSVFLATDRANQ
Ovarian follicle development (morphological analyses) (ovaries from day 10 mice [2]; 4 days culture): promotion of ovarian follicle development | Ovarian weight of explants, R-spondin2 and FSH added together (ovaries from day 10 mice [2]; 4 days culture, combined with FSH): further increases | Ovarian weight of explants (ovaries from day 10 mice [2]; day 10 ovaries, 4 days culture): increased ovarian weight in a dose-dependent manner | Percentage of primordial and degenerated follicles (ovaries from day 10 mice [2]; [5]): negligible changes | Ratio of primary and percentage of secondary follicles (ovaries from day 10 mice [2]; [5]): decreased the ratio of primary follicles accompanied by increases in the percentage of secondary follicles | TCF-luciferase activity in the presence of both Wnt3a and R-spondin2 ([3]; 18 h, combined with Wnt3a): synergistic increases | TCF-luciferase activity ([3]; 18 h): minimal stimulation | MTS activity (viable cell number) [4]: stimulated MTS activity in a dose-dependent manner | MTS activity with both Wnt3a and R-Spondin2 ([4]; combined with Wnt3a): further increases in MTS activity

B3: DKK1: Dickkopf1, a Wnt signaling antagonist (protein, UniProt O94907 32-266, looked up)
Dickkopf-related protein 1: TLNSVLNSNAIKNLPPPLGGAAGHPGSAVSAAPGILYPGGNKYQTIDNYQPYPCAEDEECGTDEYCASPTRGGDAGVQICLACRKRRKRCMRHAMCCPGNYCKNGICVSSDQNHFRGEIEETITESFGNDHSTLDGYSRRTTLSSKMYHTKGQEGSVCLRSSDCASGLCCARHFWSKICKPVLKEGQVCTKHRRKGSHGLEIFQRCYCGEGLSCRIQKDHHQASNSSRLHTCQRH
Effect on stimulatory effects of FSH on ovarian growth (ovaries from day 10 mice [2]; explant cultures): not blocked | Effect on R-spondin2- and Wnt3a-stimulated TCF-luciferase activity [3]: blocked the stimulatory effects

B4: Wnt3a: Wnt ligand (protein, UniProt P56704 19-352, looked up)
Protein Wnt-3a: SYPIWWSLAVGPQYSSLGSQPILCASIPGLVPKQLRFCRNYVEIMPSVAEGIKIGIQECQHQFRGRRWNCTTVHDSLAIFGPVLDKATRESAFVHAIASAGVAFAVTRSCAEGTAAICGCSSRHQGSPGKGWKWGGCSEDIEFGGMVSREFADARENRPDARSAMNRHNNEAGRQAIASHMHLKCKCHGLSGSCEVKTCWWSQPDFRAIGDFLKDKYDSASEMVVEKHRESRGWVETLRPRYTYFKVPTERDLVYYEASPNFCEPNPETGSFGTRDRTCNVSSHGIDGCDLLCCGRGHNARAERRREKCRCVFHWCCYVSCQECTRVYDVHTCK
TCF-luciferase activity ([3]; 18 h): minimal stimulation | MTS activity (viable cell number) [4]: stimulated MTS activity in a dose-dependent manner
